Patent publication US20120114682A1 (GEORGIA TECH RESEARCH, published 2012)
Where no end group is shown, it is not given here.

What was measured:
Fibrinogen fragment D [1] = target: T1, Fibrinogen fragment D (human, UniProt P02671 130-216; P02675 164-491; P02679 114-432, limits assumed); test: affinity purification from plasmin-digested fibrinogen, elution with 1 M sodium bromide
T1 construct: domain: Fragment D (or D-domain); Made by plasmin digestion of human fibrinogen and purified on GPRPAA beads; holds the C-terminal polymerization pockets without the N-terminal knobs; immobilised by amine coupling on the SPR chip; also called D-domain
T1 sequence (looked up) 1: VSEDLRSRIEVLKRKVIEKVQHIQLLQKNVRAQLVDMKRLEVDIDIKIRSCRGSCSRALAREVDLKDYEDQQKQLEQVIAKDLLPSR
T1 sequence (looked up) 2: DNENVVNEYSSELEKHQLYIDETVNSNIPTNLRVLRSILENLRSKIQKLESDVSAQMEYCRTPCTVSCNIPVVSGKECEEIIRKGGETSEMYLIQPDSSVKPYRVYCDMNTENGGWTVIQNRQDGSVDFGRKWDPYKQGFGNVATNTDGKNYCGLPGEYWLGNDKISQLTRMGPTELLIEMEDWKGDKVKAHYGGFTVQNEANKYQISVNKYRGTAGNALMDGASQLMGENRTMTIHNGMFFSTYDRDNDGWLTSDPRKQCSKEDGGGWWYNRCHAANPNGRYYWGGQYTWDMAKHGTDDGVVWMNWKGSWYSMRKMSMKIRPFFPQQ
T1 sequence (looked up) 3: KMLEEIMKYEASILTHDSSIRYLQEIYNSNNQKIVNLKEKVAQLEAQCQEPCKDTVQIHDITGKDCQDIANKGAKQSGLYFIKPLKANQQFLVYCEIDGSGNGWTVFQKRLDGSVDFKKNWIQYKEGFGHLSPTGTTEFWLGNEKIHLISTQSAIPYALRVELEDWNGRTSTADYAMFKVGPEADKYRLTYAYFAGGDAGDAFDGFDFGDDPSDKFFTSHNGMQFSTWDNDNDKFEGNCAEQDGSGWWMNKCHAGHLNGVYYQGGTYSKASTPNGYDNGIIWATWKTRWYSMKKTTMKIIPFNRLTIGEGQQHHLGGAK
Method: Human fibrinogen (# FIB3, Enzyme Research Laboratories, South Bend, Ind.) at 2 mg/mL was digested with 0.1 U/mL human plasmin (Enzyme Research Laboratories) in HEPES+Ca buffer (150 mM NaCl, 5 mM CaCl₂, 25 mM HEPES, pH 7.4) overnight at room temperature. Fragment D (or D-domain) was isolated as previously described, with slight modifications, using a polymeric resin with covalently linked GPRPAA (SEQ ID NO:10) peptide (Kostelansky M S, et al. Biochemistry 2002, 41(40):12124-12132). Briefly, the plasmin-digested fibrinogen and GPRPAA-beads were incubated for 30 min, with occasional agitation. The unbound protein fragments were removed with exhaustive washing with HEPES+Ca buffer. Fragment D was eluted using 1 M sodium bromide, 50 mM sodium acetate, pH 5.3 and exchanged back into HEPES+Ca buffer using a centrifugal filter with MWCO 10,000.

Fibrinogen fragment D [2] = target: T1, Fibrinogen fragment D; test: SPR competition with GPRP-FnIII9-10 on immobilised fragment D

B1: GPRPAA peptide covalently linked to a polymeric resin (peptide)
peptide: GPRPAA
modifications: not fully specified
notes: also called GPRPAA-beads
Question: Does B1 bind (Fibrinogen fragment D [1])?
Answer: Result: binds

B2: GPRP tetrapeptide (peptide)
peptide: GPRP
notes: Synthetic (Genscript); also called A-knob tetrapeptide mimetic; soluble GPRP peptide
Question: Does B2 bind (Fibrinogen fragment D [2])?
Answer: Result: binds
